Data reported in US7008781.

Target: Tie-2 receptor in EAhy926 cells (UniProt Q02763)
Assay: cell-based or functional assay
Conditions: scale: fold molar excess of Ang1*

Chain of UniProt Q02763 (Q02763 23-1124 limits assumed): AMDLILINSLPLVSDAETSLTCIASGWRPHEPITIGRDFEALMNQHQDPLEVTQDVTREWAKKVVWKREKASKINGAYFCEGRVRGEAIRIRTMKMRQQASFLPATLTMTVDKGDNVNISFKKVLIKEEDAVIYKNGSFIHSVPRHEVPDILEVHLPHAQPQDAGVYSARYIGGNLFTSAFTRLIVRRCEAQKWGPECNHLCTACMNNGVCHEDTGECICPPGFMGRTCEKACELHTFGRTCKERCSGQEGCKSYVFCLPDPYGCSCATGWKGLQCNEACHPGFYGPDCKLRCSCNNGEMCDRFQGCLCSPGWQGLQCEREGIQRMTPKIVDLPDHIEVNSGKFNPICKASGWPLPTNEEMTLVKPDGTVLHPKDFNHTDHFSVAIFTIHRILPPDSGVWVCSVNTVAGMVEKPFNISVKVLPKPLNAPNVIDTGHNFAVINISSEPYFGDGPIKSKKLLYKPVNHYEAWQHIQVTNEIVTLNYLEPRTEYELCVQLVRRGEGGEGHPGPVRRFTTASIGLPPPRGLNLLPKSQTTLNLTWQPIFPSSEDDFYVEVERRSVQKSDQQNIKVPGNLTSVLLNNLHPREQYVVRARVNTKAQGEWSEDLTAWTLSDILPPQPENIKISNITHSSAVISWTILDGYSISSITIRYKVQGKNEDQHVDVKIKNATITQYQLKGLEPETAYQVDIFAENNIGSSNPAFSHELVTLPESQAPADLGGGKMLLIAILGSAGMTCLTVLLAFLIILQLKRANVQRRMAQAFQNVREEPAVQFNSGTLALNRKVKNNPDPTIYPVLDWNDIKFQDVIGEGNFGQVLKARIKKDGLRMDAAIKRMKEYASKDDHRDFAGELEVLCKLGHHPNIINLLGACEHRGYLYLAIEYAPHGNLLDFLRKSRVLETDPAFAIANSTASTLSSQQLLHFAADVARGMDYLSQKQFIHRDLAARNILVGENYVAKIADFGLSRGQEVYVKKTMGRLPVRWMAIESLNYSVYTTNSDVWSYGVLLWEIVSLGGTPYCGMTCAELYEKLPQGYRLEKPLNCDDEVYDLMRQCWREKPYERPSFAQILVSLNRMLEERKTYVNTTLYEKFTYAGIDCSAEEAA

## angiopoietin-2 (from UniProt O15123 19-496) (ligand)
  block of Ang1*-mediated Tie-2 receptor phosphorylation in EAhy926 cells: > 20
